Experimental data reported in publication PMC1409677.

Target: human alpha-thrombin (Homo sapiens, UniProt P00734;P00734 328-363;364-622)
Assay: FRET

B1: APT (thrombin aptamer with 12 nt 5' toehold) (structured_DNA)
DNA: TAAGTTCATCTCGGTTGGTGTGGTTGG
B1: binds.
